Data as given in patent publication US11278600B2, “Human alpha-galactosidase variants” (Codexis, Inc., priority 2014, dated 2022).
Positions count from the first letter of the chain named.

Tests used:
Format in all cases: biochemical
[1] = HTP-analysis of yeast culture supernatants, no challenge (MUGal hydrolysis); details: activity of the variant/activity of WT GLA (SEQ ID NO: 5), yeast supernatant
How it was run: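 GLA variants were expressed in INVSc1 yeast grown in SD-Ura broth with glucose at 30° C., and culture supernatants were collected after 66-84 h. Supernatant was mixed with McIlvaine buffer pH 4.8 and MUGal (2 mM stock) in 50 mM citrate, 200 mM KCl, pH 4.6, incubated at 37° C. for 30-180 minutes, then quenched with sodium carbonate.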

[2] = HTP-analysis of supernatants pretreated with acid (MUGal hydrolysis); details: challenge at pH 4.2; activity of the variant/activity of WT GLA (SEQ ID NO: 5); yeast supernatant
How it was run: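 GLA variants were secreted from INVSc1 yeast grown 66-84 h at 30° C. in SD-Ura with 2% glucose; supernatants were mixed with McIlvaine buffer pH 3.3-4.3 and held at 37° C. for 1-3 h. Residual activity on MUGal at pH 4.8 was then measured by fluorescence.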

[3] = HTP-analysis of supernatants pretreated with base (MUGal hydrolysis); details: challenge at pH 7.1; activity of the variant/activity of WT GLA (SEQ ID NO: 5); yeast supernatant
How it was run: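 GLA variants secreted from yeast INVSc1; culture supernatants pre-incubated with McIlvaine buffer pH 7.0–8.2 or 200 mM bicarbonate pH 9.1–9.7 at 37° C. for 1–18 h. Residual activity: MUGal (4 mM stock) hydrolysis at pH 4.3–4.8, 37° C., 30–180 min, carbonate quench; fluorescence Ex 355/Em 448 nm.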

B1: 182 (protein)
chain: LDNGLARTPTMGWLHWERFMCNLDCQEEPDSCISEKLFMEMAELMVSEGWKDAGYEYLCIDDCWMAPQRDSEGRLQADPQRFPHGIRQLANYVHSKGLKLGIYADVGNKTCAGFPGSFGYYDIDAQTFADWGVDLLKFDGCYCDSLENLADGYKHMSLALNRTGRSIVYSCEWPLYMWPFQKPNYTEIRQYCNHWRNFADIDDSWKSIKSILDWTSFNQERIVDVAGPGGWNDPDMLVIGNFGLSWNQQVTQMALWAIMAAPLFMSNDLRHISPQAKALLQDKDVIAINQDPLGKQGYQLRQGDNFEVWERPLSGLAWAVAMINRQEIGGPRSYTIAVASLGKGVACNPACFITQLLPVKRKLGFYEWTSRLRSHINPTGTVLLQLENSMQMSKDLLL
modifications: Synthetic Polypeptide sequence of Variant No. 182 of mature Human GLA
Relative Activity of GLA Variants After No Challenge (NC) [1]: ++ (++ = >1.5 to 2.5 relative activity over WT GLA (SEQ ID NO: 5))
Relative Activity of GLA Variants After Challenge at pH 4.2 [2]: + (+ = 0.5 to 1.5 relative activity over WT GLA (SEQ ID NO: 5))
Relative Activity of GLA Variants After Challenge at pH 7.1 [3]: + (+ = 0.5 to 1.5 relative activity over WT GLA (SEQ ID NO: 5))

B2: 191 (protein)
chain: B1 chain with W178S, S389T
modifications: Synthetic Polypeptide sequence of Variant No. 191 of mature Human GLA
Relative Activity of GLA Variants After No Challenge (NC) [1]: + (+ = 0.5 to 1.5 relative activity over WT GLA (SEQ ID NO: 5))
Relative Activity of GLA Variants After Challenge at pH 4.2 [2]: ++ (++ = >1.5 to 2.5 relative activity over WT GLA (SEQ ID NO: 5))
Relative Activity of GLA Variants After Challenge at pH 7.1 [3]: + (+ = 0.5 to 1.5 relative activity over WT GLA (SEQ ID NO: 5))

B3: 43 (protein)
chain: B1 chain with E367T, S389T
modifications: Synthetic Polypeptide sequence of Variant No. 43 of mature Human GLA
Relative Activity of GLA Variants After No Challenge (NC) [1]: + (+ = 0.5 to 1.5 relative activity over WT GLA (SEQ ID NO: 5))
Relative Activity of GLA Variants After Challenge at pH 4.2 [2]: + (+ = 0.5 to 1.5 relative activity over WT GLA (SEQ ID NO: 5))
Relative Activity of GLA Variants After Challenge at pH 7.1 [3]: + (+ = 0.5 to 1.5 relative activity over WT GLA (SEQ ID NO: 5))

B4: 183 (protein)
chain: B1 chain with V133I, S389T
modifications: Synthetic Polypeptide sequence of Variant No. 183 of mature Human GLA
Relative Activity of GLA Variants After No Challenge (NC) [1]: + (+ = 0.5 to 1.5 relative activity over WT GLA (SEQ ID NO: 5))
Relative Activity of GLA Variants After Challenge at pH 4.2 [2]: + (+ = 0.5 to 1.5 relative activity over WT GLA (SEQ ID NO: 5))
Relative Activity of GLA Variants After Challenge at pH 7.1 [3]: + (+ = 0.5 to 1.5 relative activity over WT GLA (SEQ ID NO: 5))

B5: 40 (protein)
chain: B1 chain with S389T, L396R
modifications: Synthetic Polypeptide sequence of Variant No. 40 of mature Human GLA
Relative Activity of GLA Variants After No Challenge (NC) [1]: ++ (++ = >1.5 to 2.5 relative activity over WT GLA (SEQ ID NO: 5))
Relative Activity of GLA Variants After Challenge at pH 4.2 [2]: ++ (++ = >1.5 to 2.5 relative activity over WT GLA (SEQ ID NO: 5))
Relative Activity of GLA Variants After Challenge at pH 7.1 [3]: ++ (++ = >1.5 to 2.5 relative activity over WT GLA (SEQ ID NO: 5))

B6: 188 (protein)
chain: B1 chain with V359E, S389T
modifications: Synthetic Polypeptide sequence of Variant No. 188 of mature Human GLA
Relative Activity of GLA Variants After No Challenge (NC) [1]: + (+ = 0.5 to 1.5 relative activity over WT GLA (SEQ ID NO: 5))
Relative Activity of GLA Variants After Challenge at pH 4.2 [2]: + (+ = 0.5 to 1.5 relative activity over WT GLA (SEQ ID NO: 5))
Relative Activity of GLA Variants After Challenge at pH 7.1 [3]: + (+ = 0.5 to 1.5 relative activity over WT GLA (SEQ ID NO: 5))

B7: 187 (protein)
chain: B1 chain with V345Y, S389T
modifications: Synthetic Polypeptide sequence of Variant No. 187 of mature Human GLA
Relative Activity of GLA Variants After No Challenge (NC) [1]: + (+ = 0.5 to 1.5 relative activity over WT GLA (SEQ ID NO: 5))
Relative Activity of GLA Variants After Challenge at pH 4.2 [2]: + (+ = 0.5 to 1.5 relative activity over WT GLA (SEQ ID NO: 5))
Relative Activity of GLA Variants After Challenge at pH 7.1 [3]: + (+ = 0.5 to 1.5 relative activity over WT GLA (SEQ ID NO: 5))

B8: 184 (protein)
chain: B1 chain with V168A, S389T
modifications: Synthetic Polypeptide sequence of Variant No. 184 of mature Human GLA
Relative Activity of GLA Variants After No Challenge (NC) [1]: ++ (++ = >1.5 to 2.5 relative activity over WT GLA (SEQ ID NO: 5))
Relative Activity of GLA Variants After Challenge at pH 4.2 [2]: + (+ = 0.5 to 1.5 relative activity over WT GLA (SEQ ID NO: 5))
Relative Activity of GLA Variants After Challenge at pH 7.1 [3]: + (+ = 0.5 to 1.5 relative activity over WT GLA (SEQ ID NO: 5))

B9: 186 (protein)
chain: B1 chain with V345N, S389T
modifications: Synthetic Polypeptide sequence of Variant No. 186 of mature Human GLA
Relative Activity of GLA Variants After No Challenge (NC) [1]: ++ (++ = >1.5 to 2.5 relative activity over WT GLA (SEQ ID NO: 5))
Relative Activity of GLA Variants After Challenge at pH 4.2 [2]: ++ (++ = >1.5 to 2.5 relative activity over WT GLA (SEQ ID NO: 5))
Relative Activity of GLA Variants After Challenge at pH 7.1 [3]: +++ (+++ = >2.5 relative activity over WT GLA (SEQ ID NO: 5))

B10: 185 (protein)
chain: B1 chain with V168L, S389T
modifications: Synthetic Polypeptide sequence of Variant No. 185 of mature Human GLA
Relative Activity of GLA Variants After No Challenge (NC) [1]: + (+ = 0.5 to 1.5 relative activity over WT GLA (SEQ ID NO: 5))
Relative Activity of GLA Variants After Challenge at pH 4.2 [2]: ++ (++ = >1.5 to 2.5 relative activity over WT GLA (SEQ ID NO: 5))
Relative Activity of GLA Variants After Challenge at pH 7.1 [3]: + (+ = 0.5 to 1.5 relative activity over WT GLA (SEQ ID NO: 5))

B11: 189 (protein)
chain: B1 chain with V93I, S389T
modifications: Synthetic Polypeptide sequence of Variant No. 189 of mature Human GLA
Relative Activity of GLA Variants After No Challenge (NC) [1]: + (+ = 0.5 to 1.5 relative activity over WT GLA (SEQ ID NO: 5))
Relative Activity of GLA Variants After Challenge at pH 4.2 [2]: + (+ = 0.5 to 1.5 relative activity over WT GLA (SEQ ID NO: 5))
Relative Activity of GLA Variants After Challenge at pH 7.1 [3]: + (+ = 0.5 to 1.5 relative activity over WT GLA (SEQ ID NO: 5))

B12: 190 (protein)
chain: B1 chain with W178H, S389T
modifications: Synthetic Polypeptide sequence of Variant No. 190 of mature Human GLA
Relative Activity of GLA Variants After No Challenge (NC) [1]: ++ (++ = >1.5 to 2.5 relative activity over WT GLA (SEQ ID NO: 5))
Relative Activity of GLA Variants After Challenge at pH 4.2 [2]: + (+ = 0.5 to 1.5 relative activity over WT GLA (SEQ ID NO: 5))
Relative Activity of GLA Variants After Challenge at pH 7.1 [3]: ++ (++ = >1.5 to 2.5 relative activity over WT GLA (SEQ ID NO: 5))

B13: 41 (protein)
chain: B1 chain with S389T, L396T
modifications: Synthetic Polypeptide sequence of Variant No. 41 of mature Human GLA
Relative Activity of GLA Variants After No Challenge (NC) [1]: + (+ = 0.5 to 1.5 relative activity over WT GLA (SEQ ID NO: 5))
Relative Activity of GLA Variants After Challenge at pH 4.2 [2]: + (+ = 0.5 to 1.5 relative activity over WT GLA (SEQ ID NO: 5))
Relative Activity of GLA Variants After Challenge at pH 7.1 [3]: + (+ = 0.5 to 1.5 relative activity over WT GLA (SEQ ID NO: 5))

B14: 42 (protein)
chain: B1 chain with E367N, S389T
modifications: Synthetic Polypeptide sequence of Variant No. 42 of mature Human GLA
Relative Activity of GLA Variants After No Challenge (NC) [1]: +++ (+++ = >2.5 relative activity over WT GLA (SEQ ID NO: 5))
Relative Activity of GLA Variants After Challenge at pH 4.2 [2]: +++ (+++ = >2.5 relative activity over WT GLA (SEQ ID NO: 5))
Relative Activity of GLA Variants After Challenge at pH 7.1 [3]: +++ (+++ = >2.5 relative activity over WT GLA (SEQ ID NO: 5))
